According to article PMC10167072, “Human granzyme B binds Plasmodium falciparum Hsp70-x and mediates antiplasmodial activity in vitro” (Cell Stress & Chaperones, 2023):

How the values were obtained:
[1] = target: full-length PfHsp70-xF (P. falciparum); experiment: SPR; Hsp70 immobilised (100 µg/mL) on CMD 3D 500L chip, GrB analyte 0-2000 nM, 25 °C, PBS-Tween 20 with 20 mM EDTA pH 7.4, 25 μL/min, 1:1 Langmuir global fit; with ADP
[2] = target: PfHsp70-xT, truncated PfHsp70-x lacking the C-terminal EEVN residues (P. falciparum); experiment: as above
[3] = target: full-length PfHsp70-xF (P. falciparum); experiment: SPR; Hsp70 immobilised (100 µg/mL) on CMD 3D 500L chip, GrB analyte 0-2000 nM, 25 °C, PBS-Tween 20 with 20 mM EDTA pH 7.4, 25 μL/min, 1:1 Langmuir global fit; no nucleotide
[4] = target: PfHsp70-xT, truncated PfHsp70-x lacking the C-terminal EEVN residues (P. falciparum); experiment: as above
[5] = target: full-length PfHsp70-xF (P. falciparum); experiment: SPR; Hsp70 immobilised (100 µg/mL) on CMD 3D 500L chip, GrB analyte 0-2000 nM, 25 °C, PBS-Tween 20 with 20 mM EDTA pH 7.4, 25 μL/min, 1:1 Langmuir global fit; with ATP
[6] = target: PfHsp70-xT, truncated PfHsp70-x lacking the C-terminal EEVN residues (P. falciparum); experiment: as above
human granzyme B = target: T1, human granzyme B (human, UniProt P10144 19-247); experiment: SPR; GrB immobilised on the chip, TKD peptides injected as analytes at 0, 125, 500, 750 and 1000 nM, 25 °C, 1:1 Langmuir global fit; no nucleotide; conditions: both partners purified
T1 construct: granzyme B, human, serine protease; Bought protein; also called GrB; human GrB; source: bought: Hölzel Diagnostics, Cologne, Germany

human granzyme B (from UniProt P10144 19-247) (enzyme)
Kd [1]: 1 nM | koff [1]: 7.06e-06 s⁻¹ | kon [1]: 3850 M⁻¹ s⁻¹ | Kd [2]: 2820 nM | koff [2]: 2.24e-05 s⁻¹ | kon [2]: 2560 M⁻¹ s⁻¹ | Kd [3]: 4 nM | koff [3]: 1.64e-05 s⁻¹ | kon [3]: 4350 M⁻¹ s⁻¹ | Kd [4]: 2370 nM | koff [4]: 0.000732 s⁻¹ | kon [4]: 2140 M⁻¹ s⁻¹ | Kd [5]: 1 nM | koff [5]: 2.05e-05 s⁻¹ | kon [5]: 6990 M⁻¹ s⁻¹ | Kd [6]: 4200 nM | koff [6]: 0.000123 s⁻¹ | kon [6]: 5870 M⁻¹ s⁻¹

B1: synthetic TKD peptide representing the 14-mer TKD motif of PfHsp70-x (peptide)
peptide: TKDNNLLGKFQLEG
notes: 14-mer TKD motif of PfHsp70-x, Plasmodium falciparum; also called PfHsp70-x TKD; source: synthetic peptide (Genscript, Piscataway, NJ, USA)
Kd (human granzyme B): 20 nM | koff (human granzyme B): 3.62e-05 s⁻¹ | kon (human granzyme B): 3130 M⁻¹ s⁻¹

B2: TKD motif of hHsp70 (14-mer peptide) (peptide)
peptide: TKDNNLLGRFELSG
notes: 14-mer TKD motif of human Hsp70, amino acids 450-463; also called hHsp70 TKD motif
Kd (human granzyme B): 4 nM | koff (human granzyme B): 2.17e-05 s⁻¹ | kon (human granzyme B): 2930 M⁻¹ s⁻¹
